Results from patent US20110318339A1 (FABRUS, published 2011).
Positions count from the first letter of the chain named. Names and notes keep the numbering of the source.

What was measured:
[1] = target: T1, full-length human DLL4 expressed on the surface of CHO cells (human, UniProt Q9NR61 26-685); assay: flow cytometry, 250 nM biotinylated Notch-Fc on CHO-DLL4 cells, no Fab (0 nM control)
T1 construct: also called CHO-DLL4; DLL4-expressing CHO cells
Description: (§1) Streptavidin-PE was used as a detection molecule.
(§2) Fab was 5-fold serially diluted in 2% BSA/PBS from a starting concentration of 50 nM. […] PE-labeled streptavidin (Cat# 21627, Pierce-Thermo Scientific) was then added to a final dilution of 1:5 followed by incubation for 10 minutes at room temperature. The cells were then washed twice in 2% BSA/PBS and analyzed by flow cytometry on a BD FACSAria.

[2] = target: T2, recombinant human DLL4 (Cat# 1506-D4/CF, R&D Systems) (human, UniProt Q9NR61 27-529); assay: ELISA, hDLL4 coated 0.5 ng/ul, Fab 12.50 nM
T2 construct: Bought protein; also called hDLL4; h DLL4
Description: (§3) The plate was blocked by adding 1% BSA in Tris-buffered Saline Tween (TBST) and incubating for 1 hour at room temperature followed by washing 2 times with 150 μl TBST. A Fab antibody was serially diluted in 1% BSA in PBS. A 50 μl aliquot of each serial dilution was added, in triplicate, to each well and the plate was incubated for 1 hour at room temperature followed by washing 2 times with TBST. 50 μl of either goat anti-human kappa HRP conjugated secondary antibody (Cat # A7164-1 mL, Sigma-Aldrich) or goat anti-human lambda HRP conjugated secondary antibody (Cat # L1645-1 ml, Sigma-Aldrich), diluted 1:1000 in 1% BSA in PBS, was added to each well and the plate was incubated for 30 minutes at room temperature followed by washing 3 times with 200 μl TBST. Finally, 50 μl TMB one-component reagent (Cat # TMBW-1000-01, BioFax) was added and allowed to develop for 2 minutes at room temperature. The reaction was immediately halted by the addition of 50 μl 0.5M H₂SO₄ and the absorbance at 450 nm was measured using an ELISA plate reader.

[3] = target: T1, full-length human DLL4 expressed on the …; assay: flow cytometry competition, 250 nM biotinylated Notch-Fc as competitor, Fab 2 nM
Description: as §1, §2

[4] = target: T2, recombinant human DLL4 (Cat# …); assay: ELISA, hDLL4 coated 0.5 ng/ul, Fab 50.00 nM
Description: as §3

[5] = target: T1, full-length human DLL4 expressed on the …; assay: flow cytometry competition, 250 nM biotinylated Notch-Fc as competitor, Fab 50 nM
Description: as §1, §2

[6] = target: T1, full-length human DLL4 expressed on the …; assay: flow cytometry competition, 250 nM biotinylated Notch-Fc as competitor, Fab 10 nM
Description: as §1, §2

[7] = target: T2, recombinant human DLL4 (Cat# …); assay: ELISA, hDLL4 coated 0.5 ng/ul, Fab 25.00 nM
Description: as §3

[8] = target: T2, recombinant human DLL4 (Cat# …); assay: ELISA, hDLL4 coated 0.5 ng/ul, Fab 3.13 nM
Description: as §3

[9] = target: T2, recombinant human DLL4 (Cat# …); assay: ELISA, hDLL4 coated 0.5 ng/ul, Fab 0.78 nM
Description: as §3

[10] = target: T2, recombinant human DLL4 (Cat# …); assay: ELISA, hDLL4 coated 0.5 ng/ul, Fab 6.25 nM
Description: as §3

[11] = target: T2, recombinant human DLL4 (Cat# …); assay: ELISA, hDLL4 coated 0.5 ng/ul, Fab 100.00 nM
Description: as §3

[12] = target: T2, recombinant human DLL4 (Cat# …); assay: ELISA, hDLL4 coated 0.5 ng/ul, Fab 1.56 nM
Description: as §3

[13] = target: T3, Recombinant Human DLL4 (Cat# 1506-D4/CF, R&D Systems) (human, UniProt Q9NR61 27-529); assay: ELISA, hDLL4 coated, estimated from dose-dependent binding
T3 construct: Bought protein; also called rHuman DLL4; hDLL4

[14] = target: full-length human DLL4 expressed on the surface of CHO cells (human, UniProt Q9NR61 27-685); assay: cell-based or functional assay
[15] = target: T4, recombinant mouse DLL4 (Cat# 1389-D4-050/CF, R&D Systems) (mouse, UniProt Q9JI71 28-525); assay: SPR, mDLL4 on chip, row 'Surface 1' (third)
T4 construct: Bought protein; also called mDLL4
T4 sequence (Q9JI71 28-525 limits assumed): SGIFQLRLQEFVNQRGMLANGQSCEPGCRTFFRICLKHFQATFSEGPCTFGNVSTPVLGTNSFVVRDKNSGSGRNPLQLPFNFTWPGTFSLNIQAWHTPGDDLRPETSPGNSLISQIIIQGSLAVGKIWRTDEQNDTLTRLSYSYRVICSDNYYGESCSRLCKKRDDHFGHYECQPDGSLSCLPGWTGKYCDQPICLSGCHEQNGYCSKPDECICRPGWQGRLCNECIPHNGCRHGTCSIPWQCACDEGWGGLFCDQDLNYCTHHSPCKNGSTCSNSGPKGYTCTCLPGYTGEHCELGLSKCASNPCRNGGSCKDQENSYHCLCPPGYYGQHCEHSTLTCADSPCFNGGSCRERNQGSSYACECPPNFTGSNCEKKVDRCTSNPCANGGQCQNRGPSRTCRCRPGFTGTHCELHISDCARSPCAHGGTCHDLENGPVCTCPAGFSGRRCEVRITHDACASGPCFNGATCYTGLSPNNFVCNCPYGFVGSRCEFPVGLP

[16] = target: T5, recombinant human DLL4 (Cat# 1506-D4/CF, R&D Systems) (human, UniProt Q9NR61 27-529); assay: ELISA, DLL4 coated, Fab 20 nM
T5 construct: Bought protein; also called hDLL4; rHuman DLL4
Summary of the method: (§4)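 A450 read-out after 2 min TMB development and acid stop. Fab, serially diluted in 1% BSA/PBS, bound in triplicate for 1 h at RT on plates blocked with 1% BSA/TBST; detection via HRP goat anti-human kappa or lambda (1:1000, 30 min RT).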

[17] = target: T5, recombinant human DLL4 (Cat# …); assay: ELISA, DLL4 coated, Fab 2.22 nM
Summary of the method: as §4

[18] = target: T5, recombinant human DLL4 (Cat# …); assay: ELISA, DLL4 coated, Fab 6.67 nM
Summary of the method: as §4

[19] = target: T4, recombinant mouse DLL4 (Cat# …); assay: SPR, mDLL4 on chip, row 'Surface 1' (first)
[20] = target: T4, recombinant mouse DLL4 (Cat# …); assay: SPR, mDLL4 on chip, row 'Surface 1' (second)
[21] = target: T5, recombinant human DLL4 (Cat# …); assay: SPR (ProteOn), hDLL4 amine-coupled on chip
Summary of the method: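 SPR on a ProteOn GLM chip, with DLL4 amine-coupled at three surface densities. Fab analytes were run as 3-fold serial dilutions from 1 μM in 10 mM HEPES pH 7.4, 150 mM NaCl, 0.01% Tween-20, 0.1 mg/ml BSA at 25° C. Responses from each surface were globally fit for binding constants.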

[22] = target: T5, recombinant human DLL4 (Cat# …); assay: ELISA, DLL4 coated, Fab 0.74 nM
Summary of the method: as §4

[23] = target: T4, recombinant mouse DLL4 (Cat# …); assay: SPR, mDLL4 on chip, average of three surfaces
[24] = target: T3, Recombinant Human DLL4 (Cat# …); assay: ELISA, DLL4 coated

B1: biotinylated Notch-Fc (rHuman Notch-1/Fc Chimera, cat# 3647-TK-050, R&D Systems) (Fc fusion)
chain: ARGPRCSQPGETCLNGGKCEAANGTEACVCGGAFVGPRCQDPNPCLSTPCKNAGTCHVVDRRGVADYACSCALGFSGPLCLTPLDNACLTNPCRNGGTCDLLTLTEYKCRCPPGWSGKSCQQADPCASNPCANGGQCLPFEASYICHCPPSFHGPTCRQDVNECGQKPGLCRHGGTCHNEVGSYRCVCRATHTGPNCERPYVPCSPSPCQNGGTCRPTGDVTHECACLPGFTGQNCEENIDDCPGNNCKNGGACVDGVNTYNCRCPPEWTGQYCTEDVDECQLMPNACQNGGTCHNTHGGYNCVCVNGWTGEDCSENIDDCASAACFHGATCHDRVASFYCECPHGRTGLLCHLNDACISNPCNEGSNCDTNPVNGKAICTCPSGYTGPACSQDVDECSLGANPCEHAGKCINTLGSFECQCLQGYTGPRCEIDVNECVSNPCQNDATCLDQIGEFQCICMPGYEGVHCEVNTDECASSPCLHNGRCLDKINEFQCECPTGFTGHLCQ
modifications: biotinylated with EZ-Link NHS-Biotin Reagent (sites not given)
notes: Bought Notch-1/Fc chimera; Fc part of the bought chimera not given
- signal of Notch-Fc bound to CHO-DLL4 (streptavidin-PE) [1]: 531

B2: Fab VH5-51_IGHD5-18*01>3_IGHJ4*01 G100K/G104T G24T/S28R/G35V (H:KT TRV) & V3-4_IGLJ1*01 (Fab, V domains shown)
VH: EVQLVQSGAEVKKPGESLKISCKTSGYRFTSYWIVWVRQMPGKGLEWMGIIYPGDSDTRYSPSFQGQVTISADKSISTAYLQWSSLKASDTAMYYCARRKYSYTYDYFDYWGQGTLVTVSS
VL: QTVVTQEPSFSVSPGGTVTLTCGLSSGSVSTSYYPSWYQQTPGQAPRTLIYSTNTRSSGVPDRFSGSILGNKAALTITGAQADDESDYYCVLYMGSGISYVFGTGTKVTVL
notes: Tested as Fab from E. coli (Plasmid A: CH1, His6, Flag; Plasmid E: CL lambda); also called H:KT TRV & L:wt
- ELISA absorbance at 450 nm [2]: 0.389 A450
- signal of Notch-Fc bound to CHO-DLL4 (streptavidin-PE) [3]: 448
- ELISA absorbance at 450 nm [4]: 0.976 A450
- signal of Notch-Fc bound to CHO-DLL4 (streptavidin-PE) [5]: 141
- signal of Notch-Fc bound to CHO-DLL4 (streptavidin-PE) [6]: 244
- ELISA absorbance at 450 nm [7]: 0.6 A450
- ELISA absorbance at 450 nm [8]: 0.187 A450
- ELISA absorbance at 450 nm [9]: 0.143 A450
- ELISA absorbance at 450 nm [10]: 0.31 A450
- ELISA absorbance at 450 nm [11]: 1.45 A450
- ELISA absorbance at 450 nm [12]: 0.183 A450

B3: Fab VH5-51_IGHD5-18*01>3_IGHJ4*01 H:KT TRV & V3-4_IGLJ1*01 (Fab, V domains shown)
VH: B2 VH
VL: B2 VL
notes: Fab, lambda light chain; also called H:KT TRV & L:wt; G100K/G104T G24T/S28R/G35V
- Kd [13]: ~50 nM

B4: IgG H:APFF VLTH & L:NDH LS (antibody, V domains shown)
VH: QVQLVQSGAEVKKPGASVKVSCKASGYTFTSYYMHWVRQAPGQGLEWMGIGLPTGHSTSYAQKFQGRVTMTRDTSTSTVYMELSSLRSEDTAVYYCAREEYAPFSAEYFQFWGQGTLVTVSS
VL: EIVLTQSPATLSLSPGERATLSCRASQNVDHYLAWYQQKPGQAPRLLIYDALNRSTGIPARFSGSGSGTDFTLTISSLEPEDFAVYYCQQRSNWPPWTFGQGTKVEIKR
- IC50, Notch-activation (luciferase reporter), T98G cells with CHO-DLL4 [14]: ~6 nM
- fold efficiency against Fab H:APFF VLTH & L:NDH LS, Notch-activation (luciferase reporter) [14]: 30 fold

B5: Fab VH1-46_IGHD6-6*01_IGHJ1*01 S102A/S103P/S104F/H111F I51V/N52L/S54T/G56H & L6_IGKJ1*01 S28N/S30D/S31H S52L/A55S (Fab, V domains shown)
VH: B4 VH with G51V
VL: B4 VL
notes: Fab made in E. coli: VH on CH1 with His6 and Flag tags (Plasmid A), VL on kappa CL (Plasmid C); also called H: APFF VLTH & L: NDH LS
- Kd [15]: 10.9 nM
- koff [15]: 0.00188 s⁻¹
- kon [15]: 173000 M⁻¹ s⁻¹
- ELISA absorbance at 450 nm [16]: 0.91 A450
- ELISA absorbance at 450 nm [17]: 0.523 A450
- ELISA absorbance at 450 nm [18]: 0.747 A450
- Kd [19]: 7.3 nM
- koff [19]: 0.0021 s⁻¹
- kon [19]: 287000 M⁻¹ s⁻¹
- Kd [20]: 10.8 nM
- koff [20]: 0.00178 s⁻¹
- kon [20]: 165000 M⁻¹ s⁻¹
- Kd [21]: 1.7 nM
- koff [21]: 0.00109 s⁻¹
- kon [21]: 684000 M⁻¹ s⁻¹
- ELISA absorbance at 450 nm [22]: 0.263 A450
- Kd [23]: 9.7 nM
- koff [23]: 0.00192 s⁻¹
- kon [23]: 208000 M⁻¹ s⁻¹

B6: Fab H:APFF VLTH & L:NDH (Fab, V domains shown)
VH: B4 VH with G51V
VL: B4 VL with L52S, S55A
notes: Fab, kappa light chain
- Kd [13]: ~1 nM
- fold increased binding affinity against the antibody mutants with heavy chain H:APFF ALTH [24]: ~10 fold
